Assay results from patent US20040248211A1, “ICAM-related protein” (priority 1992, published 2004).

B1: ICR-1.1: anti-ICAM-R monoclonal antibody, IgG2a, domain 1, ATCC HB 11053 (antibody, V domains shown)
VH: QVQLQQSGAELAKPGASVKMSCKASGYTFTVYWMHWVKQRPGQGLEWIGYINPNTDYTEYNQRFQDKATLTADKSSSTAYMQLSSLTSEDSAVYYCARWGGNSYGLDYWGQGTSVTVSS
VL: QIVLTQSPALMSASPGEKVTMTCSASSSVSYIYWYQQKPRSSPKPWIYLTSNLASGVPARFSGSGSGASYSLTISIMEAEDAATYYCQQWKSIPLTFGAGTKLELK
B2: ICR-8.1: anti-ICAM-R monoclonal antibody, IgG1, domain 1, ATCC HB 11232 (antibody, V domains shown)
VH: EIQLQQTGPELVKPGASVKISCKASGYSFTDCIILWVKQSHGKGLEWIGKINPYFGTTTYNLKFKGKATLTVDKSSSTAHMQLNSLTSEDSAVYYCARKEAYPDAMDYWGQGTSVTVSS
VL: DAVMTQTPLSLPVSLGDQASISCRSSQSLVHSNGDTYLHWYLQKPGQSPQLLIYKVSNRFSGVPDRFSGSGSGTDFTLKLSRVEAEDLGVYFCSQSTHVPYTFGGGTKLEIK

Key:
[1] = biological target: T1, Protein 3 (ICAM-R domains 1-3 fused to ICAM-1) (Homo sapiens, UniProt P05362+P32942, A326V/A340P/A352Q/A353P/D347N/D369N/D382A/E323K/E366P/E384Q/F374S/F385L/G339H/H327S/L386I/M337E/N363K/P354L/P357R/Q343K/Q356P/Q361L/Q393E/R388K/S322R/S330T/S335K/S367E/S390Q/S391T/T325E/T331E/V342A/V392R); test: FACS binding to COS cell transfectants; conditions: antibody 5.0 ug/ml
T1 construct: domains of ICAM-R (residues 1 to 291) fused to ICAM-1 (residues 317 to 532); ICAM-1 residues 317 to 532 (fusion partner in the same polypeptide); expressed in transfected cells; host or cells: COS cells, plasmid pcDNAAmp.RD1-3.1D4-5
T1 sequence (P32942+P05362 fused with the stated changes): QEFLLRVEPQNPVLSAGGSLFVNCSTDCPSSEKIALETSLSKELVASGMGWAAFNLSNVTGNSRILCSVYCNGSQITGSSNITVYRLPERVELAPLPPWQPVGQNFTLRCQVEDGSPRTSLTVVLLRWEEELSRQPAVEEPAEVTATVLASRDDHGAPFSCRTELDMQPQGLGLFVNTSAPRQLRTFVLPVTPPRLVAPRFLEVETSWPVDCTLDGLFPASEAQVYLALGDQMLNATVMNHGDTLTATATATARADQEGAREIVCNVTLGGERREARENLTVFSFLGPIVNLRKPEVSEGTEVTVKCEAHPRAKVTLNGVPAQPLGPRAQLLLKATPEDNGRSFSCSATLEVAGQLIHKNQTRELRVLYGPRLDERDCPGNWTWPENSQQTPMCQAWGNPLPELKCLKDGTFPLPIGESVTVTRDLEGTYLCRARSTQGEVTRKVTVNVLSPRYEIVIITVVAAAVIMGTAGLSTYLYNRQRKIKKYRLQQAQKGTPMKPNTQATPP
From the text: FIG. 7 is a diagram of the chimeric proteins whose construction is outlined below. Protein number 1 contains the amino-terminal immunoglobulin-like domain of ICAM-R (residues 1 to 93) fused to ICAM-1 (residue 117 to 532). Protein number 2 contains the first two amino terminal immunoglobulin-like domains of ICAM-R (residues 1 to 190) fused to ICAM-1 (residues 216 to 532). Protein number 3 contains the first three immunoglobulin-like domains of ICAM-R (residues 1 to 291) fused to ICAM-1 (residues 317 to 532).
For the anti-ICAM-R monoclonal antibody binding assay, COS cells transfected with constructs encoding the ICAM-R chimeric proteins or control constructs were removed from the plates by EDTA treatment and aliquoted at 2.5×10^5 cells per well in a 96-well round bottom plate. Cells were washed 3 times with ice cold washing buffer (PBS containing 1% BSA and 0.05% sodium azide). Anti-ICAM-R monoclonal antibody was applied at 5.0 ug/ml in 50 ul final volume and incubated on ice for 30 minutes. Cells were then washed three times with cold washing buffer and incubated with the FITC labeled secondary antibody (sheep anti-mouse IgG F(ab′)2) at a 1:100 dilution on ice for 30 minutes in dark in 50 ul final volume. After the incubation, cells were washed again for three times in the ice cold washing buffer and resuspended in 200 ul of 1% paraformaldehyde. The samples were analyzed on a Becton-Dickinson FACScan instrument. Results of the assay are given below in Table 5 as percent positive COS cell transfectants, wherein MOPC 21 (IgG1) and UPC 10 (IgG2a) are isotype matched controls, 18E3D is an ICAM-1 specific monoclonal antibody and ICR-1.1 to ICR-9.2 are ICAM-R specific monoclonal antibodies. The reactivities of monoclonal antibodies ICR-1.1 through ICR-9.2 were assayed in a different experiment than monoclonal antibodies ICR-12.1 through ICR-17.1.

PBMC = test: Anti-CD3 stimulated PBMC aggregation; format: cell-based, human; conditions: immobilized antibody
[2] = system: Fraction C cells (quiescent CD3 positive PBL); test: IL-2 production by T lymphocytes after prepulse on antibody; format: cell-based, human; conditions: 18 hours prepulse on immobilized antibody, then anti-CD3 OKT3
Description: Human PBL were obtained by Ficoll-Hypaque centrifugation of whole peripheral blood. Adherent cells were depleted by incubation on plastic and nonadherent cells were subjected to discontinuous centrifugation on Percoll gradients to further separate subsets of lymphocytes into medium buoyant density (fraction B) and high buoyant density (fraction C) cell populations. Prior to cell addition, wells were coated with monoclonal antibodies by addition of 0.1 ml each antibody at 5 ug/ml in PBS per microtiter well. Following antibody addition, all wells were incubated overnight at 4 degrees and each well was washed free of unbound antibody by PBS rinsing prior to addition of cells. Each cell fraction was then incubated for 18 hours on either ICR-1.1, ICR-4.2 or control antibodies to human major Histocompatibility Complex Class I (MHC Class I). For these experiments 2×10^5 cells per well were added in a volume of 0.2 ml RPMI-1640 containing 10% FCS to individual wells of a 96 well flat bottom microtiter plate (Costar, Cambridge, Mass.). After 18-20 hours incubation at 37° C., the cells were collected from the microtiter wells and washed twice in RPMI-1640 media containing 10% FCS and adjusted to 1×10^6 per ml in RPMI-1640 containing 10% FCS. […]

[3] = system: CD4+ T cells with allogeneic epidermal cells; test: Langerhans cell alloantigen presentation to CD4+ T cells; format: cell-based, human; conditions: 50 μg antibody
Description: Blocking experiments were performed to determine whether the observed ICAM-R expression on Lcs was functionally important in antigen presentation. CD4^+ T cells were prepared from peripheral blood and 10^5 CD4^+ T cells were combined with 4×10^4 epidermal cells harvested from keratome biopsies of normal skin of an individual allogenic to the T cell donor. Proliferation was measured by ^3H thymidine uptake. Alloantigen presentation was unaffected by addition of 50 μg IgG1 isotype control. […] Inhibition was 73% of that produced by addition of anti-LFA-1 (anti-CD11a) antibody.

Row | Molecule | percent positive COS cell transfectants, Protein 3 [1] [%] | inhibition of anti-CD3 stimulated aggregation (PBMC) [%] | IL-2 produced relative to prepulse on negative control antibodies [2] | inhibition relative to that produced by anti-LFA-1 (anti-CD11a) antibody [3] [%] | reduction in Lcs alloantigen-driven proliferative response of T cells [3] [%]
1 | B1 | 52.71 | ~100 | less than 50% | – | –
2 | B2 | – | – | – | 73 | 47
